Data from patent publication US20230365705A1 (DYNAMICURE BIOTECHNOLOGY, published 2023).

T1: Human CD93 on cells (human CD93 expressing CHO cells; HUVEC, U937 and KG1a cells) (human, UniProt Q9NPY3 22-652)
T1 construct: whole, on cells; also called hCD93 expressing CHO cells; hCD93 CHO cells
T1 sequence (looked up): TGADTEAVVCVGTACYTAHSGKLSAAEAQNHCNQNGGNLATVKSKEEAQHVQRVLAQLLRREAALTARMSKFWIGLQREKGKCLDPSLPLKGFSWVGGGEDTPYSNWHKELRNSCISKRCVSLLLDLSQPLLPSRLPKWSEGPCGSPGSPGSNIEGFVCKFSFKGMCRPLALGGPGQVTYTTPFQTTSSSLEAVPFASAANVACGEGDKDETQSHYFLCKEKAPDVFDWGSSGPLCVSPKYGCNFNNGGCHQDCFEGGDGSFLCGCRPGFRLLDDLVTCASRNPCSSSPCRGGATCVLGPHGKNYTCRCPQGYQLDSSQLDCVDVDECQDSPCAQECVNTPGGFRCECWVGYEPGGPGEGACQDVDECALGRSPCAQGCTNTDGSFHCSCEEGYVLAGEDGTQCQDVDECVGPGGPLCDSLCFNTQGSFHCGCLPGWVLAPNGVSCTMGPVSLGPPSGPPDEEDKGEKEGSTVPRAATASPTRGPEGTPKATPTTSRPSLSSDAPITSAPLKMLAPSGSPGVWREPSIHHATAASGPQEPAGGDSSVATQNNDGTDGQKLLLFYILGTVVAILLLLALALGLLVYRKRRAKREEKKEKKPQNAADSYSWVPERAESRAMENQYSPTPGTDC

T2: Human CD93 recombinant protein (Sino Biological Inc, Catalog #12589-H08H) (human, UniProt Q9NPY3 22-580)
T2 construct: Biotinylated (EZ-LINK NHS-PEG4 biotin) in the BLI assays; also called hCD93; His-tagged human CD93
T2 sequence (looked up): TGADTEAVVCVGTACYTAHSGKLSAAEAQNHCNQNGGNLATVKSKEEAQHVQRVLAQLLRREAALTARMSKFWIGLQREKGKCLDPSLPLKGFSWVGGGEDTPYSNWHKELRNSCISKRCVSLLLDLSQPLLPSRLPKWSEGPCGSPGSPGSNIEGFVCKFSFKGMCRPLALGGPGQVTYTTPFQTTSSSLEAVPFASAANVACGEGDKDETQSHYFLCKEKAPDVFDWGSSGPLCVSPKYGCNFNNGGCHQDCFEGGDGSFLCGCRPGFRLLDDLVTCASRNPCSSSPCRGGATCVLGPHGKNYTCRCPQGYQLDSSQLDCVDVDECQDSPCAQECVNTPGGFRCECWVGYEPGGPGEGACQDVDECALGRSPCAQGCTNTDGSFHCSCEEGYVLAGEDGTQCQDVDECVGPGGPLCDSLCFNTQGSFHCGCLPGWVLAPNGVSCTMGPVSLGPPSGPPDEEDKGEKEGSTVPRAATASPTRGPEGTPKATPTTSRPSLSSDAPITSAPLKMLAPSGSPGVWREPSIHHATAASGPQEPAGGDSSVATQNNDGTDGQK

B1: h7F3 (humanized 7F3, VH3+VL3) (antibody, human IgG1, V domains shown)
VH: QVQLVQSGAEVKKPGASVKVSCKASGYTFTDYEMHWVRQAPGQGLEWMGGIDPETGDTAYNQNFKGRVTMTTDTSTSTAYMELRSLTSDDTAVYYCTNYGNLYYYAMDYWGQGTSVTVSS
VL: EIVLTQSPSSLSASVGDRVTITCRASSSVSSSYLHWYQQKPGKAPKLLIYSTSNLAFGVPSRFSGSGSGTSYTFTISSLQPEDIATYYCQQYSGYPLTFGSGTKLEIK
notes: also called humanized 7F3-hIgG1
B2: h16E4 (humanized 16E4, VH4+VL6) (antibody, V domains shown)
VH: QVQLVQSGAEVKKPGASVKVSCKASGYTFTSYWMHWVRQAPGQGLEWMGEIDPSASYTYYNQKFKGRVTMTRDKSSSTVYMELSSLTSEDSAVYYCARSVYYGNKYFDVWGAGTTVTVSS
VL: DIQMTQSPSTLSASVGDRVTITCKASQSVDYAGDSYMNWYQQKPGKAPKLLIYAASNLESGVPSRFSGSGSGTEFTLTISSLQPDDFATYYCQQTNEDPRTFGGGTKLEIK
notes: Detected with anti-human IgG, so a human Fc
B3: 16E4 (hybridoma) (antibody, IgG2a, V domains shown)
VH: QVQLQQPGAELVKPGASVKLSCKASGYTFTSYWMHWVKQRPGQGLEWIGEIDPSASYTYYNQKFKGKATLTVDKSSSTAYMQLSSLTSEDSAVYYCARSVYYGNKYFDVWGAGTTVTVSS
VL: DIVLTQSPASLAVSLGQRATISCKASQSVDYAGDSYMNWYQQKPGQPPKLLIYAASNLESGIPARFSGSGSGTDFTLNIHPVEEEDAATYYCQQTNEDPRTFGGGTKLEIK
notes: also called 16E4 mAb; 16E4 mIgG2a

Columns and labels:
[1] = target: T1, Human CD93 on cells (human CD93 …); test: flow cytometry titration, KG1a cells; antibody stored 4 weeks at 40 C
Description: (§1) KG1a cells were detached by incubation with TrypLE reagents (Thermo Fisher), which preserves the integrity of CD93 on the cell surface. Then the cells were incubated with serial diluted anti-CD93 antibodies for 30 minutes at 4° C. After washing by FACS buffer, the cells were incubated with Alexa Fluor 647 conjugated anti-human IgG (Jackson ImmunoResearch) for 30 minutes in 4° C. After washing by FACS buffer twice, the samples were acquired in NovoCyte Flow Cytometer and analyzed by NovoExpress software.

[2] = target: T2, Human CD93 recombinant protein (Sino …); test: summary table, column Octet (hCD93)
[3] = target: T1, Human CD93 on cells (human CD93 …); test: summary table, column FACS (KG1a cells)
Description: as §1, §1

[4] = target: T2, Human CD93 recombinant protein (Sino …); test: summary table, column ELISA (hCD93); 2 weeks at 40 C
Description: (§2) His-tagged human CD93 was coated onto a 96 well plate at 1 μg/mL in 1×PBS overnight at 4° C. The plate was washed with ELISA wash buffer (Boston BioProduct, Inc.) and the wells were blocked with ELISA blocking buffer for 1 hour at 37° C. […] The plate was washed with ELISA wash Buffer. HRP-conjugated anti-human Fc antibody was incubated for 1 hour at 37° C. The plate was washed with ELISA wash Buffer. HRP substrate was added for indirect detection of the antibodies binding to CD93.
as §2

[5] = target: T2, Human CD93 recombinant protein (Sino …); test: summary table, column ELISA (hCD93)
[6] = target: T2, Human CD93 recombinant protein (Sino …); test: summary table, column Octet (hCD93); 2 weeks at 40 C
Description: (§3) The binding affinity of anti-CD93 antibodies was determined with bio-layer interferometry using Octet QKe (Fortebio). […] Human CD93 recombinant protein (Sino Biological Inc, Catalog #12589-H08H) was biotinylated using EZ-LINK NHS-PEG4 biotin (Thermo Fisher Scientific). Streptavidin biosensors (Fortebio) were used to load biotinylated CD93 protein (300 seconds in 5 μg/ml). Baseline was stabilized for 60 seconds in 1×kinetics buffer (Fortebio) before anti-CD93 antibodies, at a serial dilution, were allowed to associate for 300 seconds with captured protein. Then the sensors were dissociated in 1× kinetics buffer for 600 seconds. […] (FIG. 41).
as §3, with “1× kinetics” for “1×kinetics”, “42).” for “41).”

[7] = target: T1, Human CD93 on cells (human CD93 …); test: summary table, column FACS (CHO-hCD93 cells); 4 weeks at 40 C

Binder | EC50 [1] [nM] | Kd [2] [nM] | EC50 [3] [nM] | EC50 [4] [nM] | EC50 [5] [nM] | Kd [6] [nM] | EC50 [7] [nM]
B1 | 0.019 | 0.472 | 0.024 | 0.0413 | 0.0427 | 0.495 | 0.195
B2 | 0.115 | 0.416 | 0.131 | 0.049 | 0.033 | 0.0204 | 0.312
B3 | – | 0.334 | – | – | 0.112 | – | –
